B1: R. norvegicus Nup58 (aa 239–415), entire predicted α-helical part (domain or fragment)
chain: not shown
B2: long rnNup58-Nup54-Nup62 complex (complex)
chain 1: not shown
chain 2: MTKQHQTRLDIISEDISELQKNQTTTMAKIAQYKRKLMDLSHRTLQVLIKQEIQRKSGYAIQAEEEQLRVQLDTIQGELNAPTQFKGRLNELMSQIRMQNHFGAVKSEEKYYIDADLLREIKQHLKQQQEGLSHLISIIKDDLEDIKLV
chain 3: AVGTTTGPAMTYAQLESLINKWSLELEDQERHFLQQATQVNAWDRTLIENGEKITSLHREVEKVKLDQKRLDQELDFILSQQKELEDLLSPLEESVKEQSGTIYLQHADEEREKTYKLAENIDAQLKRMAQDLKDIIEHLNMAGGPADTSDPLQQICKILNAHMDSLQWVDQSSALLQRRVEEASRVCESRRKEQERSLRIAFD
B3: R. norvegicus Nup54 (aa 346–494), entire predicted α-helical part (domain or fragment)
chain: B2 chain 2
B4: short rnNup58-Nup54-Nup62 complex (complex)
chain 1: APADYFRVLVQQFEVQLQQYRQQIEELENHLATQANNSHITPQDLSMAMQKIYQTFVALAAQLQSIHENVKVLKEQYLSYRKMFLGDAG
chain 2: B2 chain 2
chain 3: B2 chain 3
B5: R. norvegicus Nup58 of the published Nup58-Nup54 crystal construct (aa 327–412) (domain or fragment)
chain: APADYFRVLVQQFEVQLQQYRQQIEELENHLATQANNSHITPQDLSMAMQKIYQTFVALAAQLQSIHENVKVLKEQYLSYRKMFLG
B6: R. norvegicus Nup58 (aa 327–415), N-terminally truncated (domain or fragment)
chain: B4 chain 1

Tests used:
[1] = target: B3; experiment: SEC
AUC = target: the molecule itself; experiment: AUC
[2] = target: T1, R. norvegicus Nup62 (aa 322–525), entire predicted α-helical part (R. norvegicus, UniProt P17955 322-525); experiment: SEC
T1 sequence: B2 chain 3

[3] = target: T2, R. norvegicus Nup54 of the published Nup58-Nup54 crystal construct (aa 456–494) (R. norvegicus, UniProt P70582 456-494); experiment: AUC
T2 chain: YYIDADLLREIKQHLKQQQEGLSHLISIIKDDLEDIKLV

Row | Binder | stoichiometry N [1] | Kd (AUC) [µM] | other results
1 | B1 | 1 |  | 
2 | B2 |  | 52 | 
3 | B3 |  |  | stoichiometry N [2]: 1
4 | B4 |  | 49.3 | 
5 | B5 |  |  | stoichiometry N [3]: 2 Nup58:Nup54
6 | B6 | 1 |  | 
